Consider one molecule from paper doi:10.1101/2024.04.18.590116 (bioRxiv, 2024).

The assay concerns the target T1, 6xHis-MPK3 (rice, UniProt Q10N20 1-369).
T1 sequence (looked up): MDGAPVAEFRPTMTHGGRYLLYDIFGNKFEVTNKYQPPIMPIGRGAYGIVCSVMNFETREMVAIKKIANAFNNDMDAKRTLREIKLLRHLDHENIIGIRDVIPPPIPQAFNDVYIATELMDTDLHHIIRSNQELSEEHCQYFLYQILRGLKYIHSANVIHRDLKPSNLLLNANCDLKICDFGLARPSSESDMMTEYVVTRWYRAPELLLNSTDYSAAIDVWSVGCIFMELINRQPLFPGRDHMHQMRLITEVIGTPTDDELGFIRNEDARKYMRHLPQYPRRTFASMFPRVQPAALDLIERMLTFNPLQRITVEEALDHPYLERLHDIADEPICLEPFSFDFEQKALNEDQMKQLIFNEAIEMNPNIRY
Briefly: pull-down.

B1: GST-KRP3 (natural protein, rice (Oryza sativa), UniProt Q2R185 1-225, looked up)
chain: MGKYLRSSCKQQQQPSSPAAVASVAAAAVSSYSYLTLRSGRRVPAAAAAAGGSACRRRHRRGGRRGCAKNGAGSARACGARSPTSSASSGQRRRCEAVECSHGGGRAELSRSPPLGNSVVVVSGDVVSGERKSLKPNSCSREVAAEHAGEHKHNPAAAAAAGRRPPLSPPEAEIEAFFAAAELAERRRFAEKYNYDIALDRPLQGRYEWEPTVPNFDVAKDVTDM
Consider B1, for which the binding result was “binds”.
